Results: patent US20220411523A1 (HEFEI HANKEMAB BIOTECHNOLOGY, published 2022)
Where two headings read alike, the source gives them in different places. Each block holds one binder with its values, some of them ahead of it.

How the values were obtained:
[1] = biological target: T1, human 4-1BB full length, on the cell surface (human, UniProt Q07011 24-255); experiment: FACS competition, CHO-K1-hu4-1BB; labelled Bio-Hanke10F4 1.5 µg/ml fixed, competitor varied
T1 construct: also called CHO-K1-hu4-1BB; WT (Human 4-1BB full length, Expi293 transient)

[2] = biological target: T2, h4-1BB-His antigen (Acro company, product number: Q07011-1) (human, UniProt Q07011 24-186); experiment: BLI (Fortebio), h4-1BB-His
T2 construct: Q07011-1 is printed as a product number; not shown: His tag

[3] = biological target: T3, human 4-1BB M101R, on the cell surface (human, UniProt Q07011 24-255); experiment: FACS (MFI) on cells transiently transfected with human 4-1BB M101R, antibody titrated from about 0.04 to 10 µg/ml
T3 construct: Point mutant of human 4-1BB on transiently transfected cells

[4] = biological target: T4, human 4-1BB N42R, on the cell surface (human, UniProt Q07011 24-255); experiment: FACS (MFI) on cells transiently transfected with human 4-1BB N42R, antibody titrated from about 0.04 to 10 µg/ml
T4 construct: Point mutant of human 4-1BB on transiently transfected cells

[5] = biological target: T1, human 4-1BB full length, on the cell …; experiment: FACS (MFI) on cells transiently transfected with human 4-1BB WT, antibody titrated from about 0.04 to 10 µg/ml
[6] = biological target: T5, monkey 4-1BB (Cy4-1BB) (SEQ ID No.6), coated on the ELISA plate (monkey, UniProt Q07011 24-186 (human entry), limits assumed); experiment: ELISA, coated monkey 4-1BB
T5 chain: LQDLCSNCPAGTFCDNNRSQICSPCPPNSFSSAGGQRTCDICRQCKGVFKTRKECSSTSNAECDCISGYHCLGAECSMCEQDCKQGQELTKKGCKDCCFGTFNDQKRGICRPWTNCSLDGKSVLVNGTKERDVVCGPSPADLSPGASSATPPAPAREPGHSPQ

[7] = biological target: T6, monkey 4-1BB on the cell membrane surface of CHO-K1 cells (monkey, UniProt Q07011 24-255 (human entry)); experiment: FACS, CHO-K1-cy4-1BB cells
T6 construct: also called CHO-K1-cy4-1BB
T6 chain: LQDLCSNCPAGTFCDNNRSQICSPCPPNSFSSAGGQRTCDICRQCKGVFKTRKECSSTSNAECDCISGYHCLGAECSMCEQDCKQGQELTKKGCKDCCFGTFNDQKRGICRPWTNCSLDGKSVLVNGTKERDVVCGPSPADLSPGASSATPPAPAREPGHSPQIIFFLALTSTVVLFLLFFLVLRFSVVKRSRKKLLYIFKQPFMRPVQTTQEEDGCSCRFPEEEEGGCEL

[8] = biological target: T1, human 4-1BB full length, on the cell …; experiment: FACS, CHO-K1-hu4-1BB cells
[9] = biological target: T7, human 4-1BB (SEQ ID No.5), coated on the ELISA plate (human, UniProt Q07011 24-186, limits assumed); experiment: ELISA, coated human 4-1BB
T7 construct: also called CD137

[10] = biological target: T8, human 4-1BB I132R, on the cell surface (human, UniProt Q07011 24-255); experiment: FACS (MFI) on cells transiently transfected with human 4-1BB I132R, antibody titrated from about 0.04 to 10 µg/ml
T8 construct: Point mutant of human 4-1BB on transiently transfected cells

[11] = biological target: T1, human 4-1BB full length, on the cell …; experiment: FACS, CHO-K1-hu4-1BB cells; remark: listed apart in the source
[12] = biological target: T1, human 4-1BB full length, on the cell …; experiment: FACS competition, CHO-K1-hu4-1BB; labelled Bio-4-1BBL 2 µg/ml fixed, competitor varied
[13] = biological target: T1, human 4-1BB full length, on the cell …; experiment: FACS competition, CHO-K1-hu4-1BB; labelled Bio-Hanke10F4 1.5 µg/ml fixed, competitor varied; remark: listed apart in the source

T2 sequence (Q07011 24-186, one chain of several): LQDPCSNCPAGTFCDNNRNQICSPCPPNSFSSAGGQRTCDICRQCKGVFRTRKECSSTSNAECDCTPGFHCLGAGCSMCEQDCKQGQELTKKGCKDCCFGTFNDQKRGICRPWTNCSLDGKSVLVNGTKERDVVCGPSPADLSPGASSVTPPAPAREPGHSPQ
T7 sequence (Q07011 24-186 limits assumed): as the sequence (Q07011 24-186, one chain of several) above

- FACS signal of Bio-Hanke10F4 at (B:A) Ratio 0.05859375 [1]: 7260
- FACS signal of Bio-Hanke10F4 at (B:A) Ratio 0.234375 [1]: 6840
- FACS signal of Bio-Hanke10F4 at (B:A) Ratio 0.9375 [1]: 5000
- FACS signal of Bio-Hanke10F4 at (B:A) Ratio 3.75 [1]: 1740
- FACS signal of Bio-Hanke10F4 at (B:A) Ratio 15 [1]: 635
- FACS signal of Bio-Hanke10F4 at (B:A) Ratio 60 [1]: 230
- Kd [2]: 13.9 nM
- koff [2]: 0.00241 s⁻¹
- kon [2]: 173000 M⁻¹ s⁻¹
- EC50 (read off the curve) [3]: ~0.7 µg/mL
- EC50 (read off the curve) [4]: ~0.7 µg/mL
- EC50 (read off the curve) [5]: ~0.7 µg/mL
- EC50 [6]: 0.0267 µg/mL
- EC50 [7]: 1.81 µg/mL
- EC50 [8]: 1.77 µg/mL
- EC50 [9]: 0.0186 µg/mL
- EC50 (read off the curve) [10]: ~0.7 µg/mL
- EC50 [11]: 1.6 µg/mL
- FACS signal of Bio-4-1BBL at (B:A) Ratio 0.03906 [12]: 7700
- FACS signal of Bio-4-1BBL at (B:A) Ratio 0.15625 [12]: 7460
- FACS signal of Bio-4-1BBL at (B:A) Ratio 0.625 [12]: 6920
- FACS signal of Bio-4-1BBL at (B:A) Ratio 2.5 [12]: 5860
- FACS signal of Bio-4-1BBL at (B:A) Ratio 10 [12]: 4310
- FACS signal of Bio-4-1BBL at (B:A) Ratio 40 [12]: 3510
- FACS signal of Bio-Hanke10F4 at (B:A) Ratio 0.058593 [13]: 7260
- FACS signal of Bio-Hanke10F4 at (B:A) Ratio 0.23437 [13]: 6840
- FACS signal of Bio-Hanke10F4 at (B:A) Ratio 0.9375 [13]: 5000
- FACS signal of Bio-Hanke10F4 at (B:A) Ratio 3.75 [13]: 1740
- FACS signal of Bio-Hanke10F4 at (B:A) Ratio 15 [13]: 635
- FACS signal of Bio-Hanke10F4 at (B:A) Ratio 60 [13]: 230
B1: Hanke10F4 (antibody, human IgG4 S228P, kappa, V domains shown)
VH: QVQLQESGPGLVKPSETLSITCTVSGSSLTSYGVHWVRQPPGKGLEGLGVIWPGGSTNYNSALMSRLTISKDNSKSQVSLKMSSLTAADTAMYYCARVTGTWYFDVWGQGTTVTVSS
VL: DIQMTQSPSSLSASLGDRVTISCSASQGISNYLNWYQQKPDGTVKLLIYYTSTLHSGVPSRFSGSGSGTDFTLTISSLQPEDVATYYCQQYSKLPWTFGGGTKLEIKR
notes: Heavy chain type IgG4, light chain kappa; Humanized from hybridoma antibody 37G10F4, transformed from scFvB60103; also called humanized anti-human 4-1BB antibody Hanke10F4; Hanke10F4 monoclonal antibody

- EC50 [11]: 1.8 µg/mL
B2: HKB6 (antibody, V domains shown)
VH: QVQLKESGPGLVAPSQSLSITCTVSGFSLTTYDISWIRQPPGKGLEWLGVIWTGGGTNYNSTFMSRLSINKDNSKSQVFLKMNSLQTDDTAIYYCVRVDYWGQGTSVTVSS
VL: DVVMTQTPLSLPVSLGDQASISCRSSQSLVHSNGNTYLHWFLQKPGQSPKLLIYKVSNRFPGVPDRFSGSGSGTDFTLKISRVEAEDLGVYFCSQNTHVPWTFGGGTKLEIKR
